Residue numbers refer to the chain shown, from its start.
How the values were obtained:
[1] = target: T1, recombinant purified CD123-Fc fusion protein (Bio-Techne/R&D Systems) (human, UniProt P26951 19-305); assay: BLI, CD123-Fc on anti-human IgG Fc capture sensors; SD 4.3
T1 construct: Bought; also called Fc-fusion of the CD123 antigen; recombinant CD123
T1 sequence: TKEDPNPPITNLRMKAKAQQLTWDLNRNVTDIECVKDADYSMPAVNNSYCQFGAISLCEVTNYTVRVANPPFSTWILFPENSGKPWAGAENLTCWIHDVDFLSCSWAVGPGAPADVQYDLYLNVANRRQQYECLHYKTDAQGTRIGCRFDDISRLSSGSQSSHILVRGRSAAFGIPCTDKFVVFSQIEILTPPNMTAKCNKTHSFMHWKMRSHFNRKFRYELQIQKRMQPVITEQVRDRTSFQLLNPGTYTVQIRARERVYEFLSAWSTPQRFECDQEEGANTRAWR
Procedure: (§1) To determine the kinetics of binding of humanized 1D2-5C8var1 variants to CD123, recombinant purified CD123-Fc fusion protein (Bio-Techne/R&D Systems) was loaded to a density of 1 nm onto anti-human IgG Fc Capture sensors (using a concentration of 5 μg/ml) for an Octet Red96e (Sartorius) instrument. Different sensors were then dipped in different concentrations of humanized 1D2-5C8var1 variants, starting at 50 nM and two-fold dilutions thereof; dilutions were made in 10× kinetic buffer (10×KB) provided by the supplier. From the obtained sensorgrams, the kinetic association- and dissociation rate constants were determined by curve fitting. The association- and dissociation rate constants, when fitting was possible, were used to calculate the affinity of the humanized 1D2-5C8var1 variants for binding to CD123. […] For reference, the non-humanized (parental) 1D2 was included in these experiments.

[2] = target: T1, recombinant purified CD123-Fc fusion …; assay: BLI, CD123-Fc on anti-human IgG Fc capture sensors; SD 1.5
Procedure: as §1

[3] = target: T1, recombinant purified CD123-Fc fusion …; assay: BLI, CD123-Fc on anti-human IgG Fc capture sensors, Octet Red96e
Procedure: as §1

[4] = target: T1, recombinant purified CD123-Fc fusion …; assay: BLI, CD123-Fc on anti-human IgG Fc capture sensors; SD 0.5
Procedure: as §1

B1: humanized 1D2-5C8var1 variant with 1D2 var3 (SEQ ID NO:27) (bispecific antibody)
chain: EVQLVESGGGLVQPGGSLRLSCAASGRTASSYVMSWFRQAPGKEREWVAVINWNGDSTYYADSVKGRFTISRDNSKNTVYLQMNSLRAEDTAVYYCAADTRREWYRDGYWGPPARYEYDYRGQGTLVTVSSGGGGSEVQLLESGGGSVQPGGSLRLSCAASGRPFSNYAMSWFRQAPGKEREFVSAISWSGGSTSYADSVKGRFTISRDNSKNTLYLQMNSLRAEDTAVYYCAAQFSGADYGFGRLGIRGYEYDYWGQGTQVTVSSAAAEPEA
notes: See note of m19
**Q.** B1 was tested. Which Kd [1] did it give?
**A.** 14.9 nM

B2: humanized 1D2-5C8var1 variant with 1D2 var5 (SEQ ID NO:29) (bispecific antibody)
chain: B1 chain with W47F
notes: See note of m19
**Q.** Which Kd [2] does the source give for B2 here?
**A.** 7.7 nM

B3: humanized 1D2-5C8var1 variant with 1D2 var7 (SEQ ID NO:31) (bispecific antibody)
chain: B1 chain with F37V, E44G, R45L, A49S, V79L
notes: See note of m19
**Q.** Does B3 bind [3]?
**A.** no binding (tested: 50 nM (highest concentration tested))

B4: humanized 1D2-5C8var1 variant with 1D2 var9 (SEQ ID NO:33) (bispecific antibody)
chain: B1 chain with P14A, S35G, A61T, T69A, S75A, L126Q
notes: See note of m19
**Q.** With B4 as the binder, how does the Kd [4] read?
**A.** 2.6 nM
